# Source: the DeepSol protein solubility set
# Assay: soluble on expression in E. coli; label from the status in PepcDB or PDB records
row,Sequence,soluble on expression in E. coli
1,MSLATTLVLGGGYAGMRAVKFLQKSLPTEDEIILVDQTPTHTEKTNLHEVAAGTIAPDRITYQIPDIIGKRVQFVQATVKNVDIEQKQVTFEDHPEMTYDYLVLALGFQSETFGVAGADENALPMDDLATSQAVYEHLEERFKAYRTSKDKNDLKIAVCGAGFTGIELLGELTQTLPRLQAKYQTPAAKLVCLERMPSILPMFTQELRDYALKFMEKNNVEMRLGAVIEAIKPGAVVYSDADKNEHEFTANTIIWTVGVSGSHVIADSGFDQRRNRVVVKPDLSLEGHPEVFIVGDVAAVMDPESNRPYPTTAQIALAAGEQAAKNIGALRHNQATATFHYESSGTVASLSDRDGIGEIFSSNKPVHGYAASALKKIITDRSLLESAHLGTVFSKGRFDLYHEGHHHHHH,soluble
2,MGSDKIHHHHHHMNIDEAKQLANYFSDGSPGYILEFNNLEWDLYTKKIVGFGIQERFGGSKGNSFKEFLVSEDISDHLKFKLIYSLNETMKQIASIRQFENPSSYKSPKMNPLVTLLIEEAYHKKDSARLLNGTKFSKEVNLEYIQQLPTRISKDIQNKDFDSVLTKSNTMIDEVLKYIIENTKGKSIDNNTVRSKDLRNQAFERLNIKIDKDMDKRIKALVGALNTLSDKILEMRNSQGDAHAQGSRRIVINEEEAILTANSAMILCEYLFRKYEKRKRFSDAKES,not soluble
3,MSLELSPTYQTERFTKFSDTLKEFKIEQNNEQNPIDPFNIIREFRSAAGQLALDLANSGDESNVISSKDWELEARFWHLVELLLVFRNADLDLDEMELHPYNSRGLFEKKLMQDNKQLYQIWIVMVWLKENTYVMERPKNVPTSKWLNSITSGGLKSCDLDFPLRENTNVLDVKDKEEDHIFFKYIYELILAGAIDEALEEAKLSDNISICMILCGIQEYLNPVIDTQIANEFNTQQGIKKHSLWRRTVYSLSQQAGLDPYERAIYSYLSGAIPNQEVLQYSDWESDLHIHLNQILQTEIENYLLENNQVGTDELILPLPSHALTVQEVLNRVASRHPSESEHPIRVLMASVILDSLPSVIHSSVEMLLDVVKGTEASNDEGHHHHHH,not soluble
4,LLSKKEIITVNVAPGHHFNDVITVKGMADEEIDKTTCGDLKFHLTEKQENLEQKQIFLKNFDDGAGEDLYTSITISLSEALTGFEKFLTKTFDDRLLTLSVKPGRVVRPGDTIKIANEGWPILDNPHGRCGDLYVFVHIEFPPDNWFNEKSELLAIKTNLPSSSSCASHATVNTEDDSNLTNNETISNFRIIHTDDLPEGIRPFKPEAQDSAHQKARSSYCCIQ,not soluble
5,MVGKRNLPVISRNFDLSPGVLRFSASRLRLKKGEKKPKFTKDTSAKLPKLQRNGTKFALGHSKTVTLRKTLTPGTVLIVLAGRHKGKRVVFLKQLPQSGLLLVTGPHKINGFPLRRIGQAFVIATSLKVNVSGVKIPEHINDEYFKRKSTAQKTGKNIFASGKTEYTVSEQRKKDIKTVDAPILAAIKKHPEHKFLFGYLGTRFSLGKNQYPHKMQF,not soluble
6,MGSDKIHHHHHHSNPTRSIPATDAVSSATAGKKMGLQTYSLGQELLQDMPNGLNRLAKAGYTDLEIFGYREDTGKFGDYNPKNTTFIASKDYKKMVDDAGLRISSSHLTPSLREYTKENMPKFDEFWKKATDIHAELGVSCMVQPSLPRIENEDDAKVVSEIFNRAGEITKKAGILWGYHNHSNEFKRVLKAGEKPEQNPNPWAPPKGTYIEELFLKNTDPDKVMFELDVYWAVMGQQDPVEWMENYPNRFKLLHIKDRWIIGDSGMMNFPNIFKKAYEIGILGYYVELEGDKKGRTQFEGVEKSAAYLQAAPFVK,not soluble
7,MADHNNTPPFDLTKLDHYIKYQPREEAEDFFVHVEVKVLGKGSSPLEISFSTSVYEFVWEDEDCYELVELYEFFTEDAGIDAFEAQFLVNDLILYVNKTTRPLDEDFTGVFKLMAEVTLKPVQLNHAGSQKTESQQP,soluble
8,MNPKSSLADGAHIGNYQIVKTLGEGSFGKVKLAYHTTTGQKVALKIINKKVLAKSDMQGRIEREISYLRLLRHPHIIKLYDVIKSKDEIIMVIEYAGNELFDYIVQRDKMSEQEARRFFQQIISAVEYCHRHKIVHRDLKPENLLLDEHLNVKIADFGLSNIMTDGNFLKTSCGSPNYAAPEVISGKLYAGPEVDVWSCGVILYVMLCRRLPFDDESIPVLFKNISNGVYTLPKFLSPGAAGLIKRMLIVNPLNRISIHEIMQDDWFKVDLPEYLLEHHHHHH,soluble
9,MTAYINQEAAAKLDEVFPLAELALKAYGPEFQGELSLLTHSENSTYLVNAFSGQRFVMRVHRAHYHSRTAIESELAWLDALADEGMEVPKAIAGRDGAKVQTIGDGHAERREVVLFHWINGYQPDQSQQESLIQGFRRLGEITAGLHIHARQWQRPHWFERRLMVGAHAAWGNWQKAPYLDKPGAAIIGKALDKVRMELNEYGNAADLFGLIHADLRLTNLLVEEEITRIIDFDDCGFSWFMHDLAAAVSFIEHSPCLNEWVGSWVNGYSTVLPLSAADHAVIPALITQRRVQLLAWTGTHQGAPQADGLGNIWVVQTIELCEKYLANTLLDCKSIS,not soluble
10,MVVSAMAGLEENGSEPTAPRADPQGDPFLRTRFALPTRPGTFLRRERLVRHLDHALRTPLTMVNGAAGAGKTLLVADWAAGQDRSVAWLTTDAADQGCGTFWAYLLQALRACDVPLPAEVGFPADANRVDHTLLARLAADLSVRDRPVVVVLDEYDRVTDPEIADQLEFV,not soluble
11,MPPRRYNPDTRRDELLERINLDIPGAVAQALREDLGGTVDANNDITAKLLPENSRSHATVITRENGVFCGKRWVEEVFIQLAGDDVTIIWHVDDGDVINANQSLFELEGPSRVLLTGERTALNFVQTLSGVASKVRHYVELLEGTNTQLLDTRKTLPGLRSALKYAVLCGGGANHRLGLSDAFLIKENHIIASGSVRQAVEKASWLHPDAPVEVEVENLEELDEALKAGADIIMLDNFETEQMREAVKRTNGKALLEVSGNVTDKTLREFAETGVDFISVGALTKHVQALDLSMRFR,soluble
12,MMEIRLTELKDLPLVMEIYDYARAFMRANGNATQWIDGYPSESFIRQEIEDGHSFVCTDEQGEILGTFCFILGEDPTYLNIYEGAWLNDEPYGVIHRMATSGKRKGVSEACLNWCFEHFENIRVDTHRDNKVMQHILAKYGFQRCGIIYVKNGTERIAYQRIL,not soluble
13,MSLDEVIIGVCWPFSVNRDGMADGLHLALDEINTRRLAGPYTIRLVERDDEFDSKKHKNIAREFADRADMSAVLGYYDDGPSIRASSIYESSRLLHLMIGANNTDMTSHGFNYINRTILSSDRIALKLAKLTTDLGYRKIVVLWEEDAYGEDLAYQYQVGLDQLNAQVVYQWSYSRKNVDFRLLVNDLKIVDADMIFFSGLEPIAGDFLRMARKVGLKTPVIGAFSNTPEMRAHAGAVGFEGAIMFDFYNPCSQTPENRLFVNKFFSRYGRYPDAWAAQSYDALHILAKAIKFTGSRNPLDLSYAIRYADAFNGANGRYKFDRAGNLEDKPIYLYKIQNGVPVLLEEGHHHHHH,soluble
14,MRGSHHHHHHTDPALRAIKVYGVPGWGSTISELMLTLADIPYQFVDVSGFDHEGASRELLKTLNPLCQVPTLALENDEIMTETAAIALMVLDRRPDLAPPVGRAERQLFQRLLVWLVANVYPTFTFADYPERWAPDAPEQLKKNVIEYRKSLYIWLNSQLTAEPYAFGEQLTLVDCYLCTMRTWGPGHEWFQDNATNISAIADAVCQLPKLQEVLKRNEIIGLCGR,soluble
15,MGHHHHHHSHMLSHFETNSALLEQLSELQGSTEPFLTEHPHMAAEHTVNWLTIAALSSAIDKNEEKLAALSEKCVVFQLFLASATGQKQFFKKFEVSENLDEVKAFKSRMRSRAQAKGEKPEKINLNQGTVDSRQFLEELKQLENLKKVRFIGKFVRKLILIVKFKFYE,not soluble
16,MAKNTLSFVCQNCGAAYNRWQGKCESCGEWNTLAEEDTSGSVPVSIRSKRKGRTFALESLAGKSPDAPRLSSGMTELDRVTGGGFVRGSVLLVGGDPGIGKSTLLTQATSLMARAGHRIVYISGEEAIAQVRLRAERLGLSDAPVQLAAETSVEDIVSTLSEGAVPRLIVIDSIQTMWTDTVESAPGTVTQVRASAQALIRFAKKTGAAIILVGHVTKDGQIAGPRVVEHMVDAVMSFEGEGSQQFRILRAVKNRFGPTDEIGVFEMTGLGLREVTNPSELFLSERDLGTPGTAVFAGIEGTRPVLVELQALVAPTSLGTPRRAVVGWDPSRLSMVLAVLEAHCGVKLSGHDVYLNVAGGLRIHEPAADLAAAAALVSSLVNAQLPTDAVYFGEISLSGVVRPVAQTPARLKEAAKLGFQRAVLPESARGEAGGDAGLSLNAVNSLTTLVAEIAARGSRRGESGGSAEKNATPARFRRGEGLEHHHHHH,not soluble
17,MSQLSPKNKNDLRQCVLYEFIDGKPVFEAYKSFCDVIGDSCMDYVDFEFWFMRFANGNLNLDFNFDKSSSLSIFNIPIEILVKIMNELDWVSRLSMRQVSRAFRSIVDEESKMPKSLSFGFYDDTVFLQYDDSCVKYKDLEEEGHDDKIDIALFDFGVTLINPRLKLDYFEVLIDAKHGLDIDSDKCFKSLEALLKARNLPLPVKNVNIETNSGYEMNHAKNIIPYLKSGVLEKIVTNCDSSSFENIEIMKEIVELDQWKQAKHLEIDSLVKIPIENFLHFEHFELFFEHLCFQDVKERLLESSNFRHCTLQVMNSFDLEELAANFGIQYMGDDEGIRQTTFYEISTNSLEMTMFLDFVTFDRKF,not soluble
18,MKTVYLTIDDGPSKDRKEKVDILYQYGIQPIWFCIGSEIEKRPEDVIYSIRKGGIIGNHSYSHPRFSQISLEECFEEIEKTDRIIDSIYREAGVARPIKAFRFPYGDKGEDNNFFKKPYSEEGKKKISKIMTFLKELGYTKPKFDGITYEYYSKFGLKDDIDWYWTYDVAEWCTFQEKPMFGVRTIDDVFELMELDLPEKWAGLNYPYSDDIILMHDHPQTTPLFKPIICQLLKKGLHFGAIPLE,soluble
19,MEDGPNEFRAWLAEIGPSWIDVFPREEDPTPEYILFGGRWNSSERDEGRRIIVNVACLLFPEESTSACQREIWTSSQYELGNLETQTTLSLRSSCPDGAKLVGGGCSTEAVGSYRYVQVIQSGFAQDDPDAWLCSWANTSDDEQTQAMAMAYCLHEEPLPAECGCCPTMAETITVKREDEPLRFGPNRLEVSCDEGQTLVLGNCTLDVDDITPFRDVTMFRSGFPPTEEHPDGDRSRWGCSWYNPTGMAPRAIATAVCLPAE,not soluble
20,MKSRAAVAFAPGKPLEIVEIDVAPPKKGEVLIKVTHTGVCHTDAFTLSGDDPEGVFPVVLGHEGAGVVVEVGEGVTSVKPGDHVIPLYTAECGECEFCRSGKTNLCVAVRETQGKGLMPDGTTRFSYNGQPLYHYMGCSTFSEYTVVAEVSLAKINPEANHEHVCLLGCGVTTGIGAVHNTAKVQPGDSVAVFGLGAIGLAVVQGARQAKAGRIIAIDTNPKKFDLARRFGATDCINPNDYDKPIKDVLLDINKWGIDHTFECIGNVNVMRAALESAHRGWGQSVIIGVAVAGQEISTRPFQLVTGRVWKGSAFGGVKGRSQLPGMVEDAMKGDIDLEPFVTHTMSLDEINDAFDLMHEGKSIRTVIRY,soluble
21,MTRYALLVRGINVGGKNKVVMAELRQELTNLGLEKVESYINSGNIFFTSIDSKAQLVEKLETFFAVHYPFIQSFSLLSLEDFEAELENLPAWWSRDLARKDFLFYTEGLDVDQVIATVESLELKDEVLYFGKLGIF,not soluble
22,AVKILEIEDLFSSLKHIQHTLVDSQSQEDISLLLQLVQNKDFQNAFKIHNAITVHMNKAS,soluble
23,MGSDKIHHHHHHMYPQRIEPQPGQESVWDYPRPPRLEDTSKHIQIIFNGVIIADTQNAKRVLETSHPPSYYIPPGDIKMEHLIPTPQSSFCEWKGLAGYYTIRVGDKEVQNAAWFYPNPTTAFASLRDHVAFYAHLMDACYVDGDQVEPQPGNFYGGWITKDVVGPFKGIPGSWGW,not soluble
